# Patent publication US20240270821A1, “GIP/GLP1/GCG TRI-RECEPTOR AGONISTS AND USES THEREOF” (priority 2023, published 2024)
# Positions count from the first letter of the chain named. Starred links: 1 amine or outer side, 2 acyl side, 3 side chain; linkers in the order of their positions; H or OH if unused. Non-standard residues stand in square brackets, D forms with d. Groups on a side chain read outwards from the residue. No end group written: not given here. *: point of attachment. C18 diacid = O=C(O)CCCCCCCCCCCCCCCCC(=O)*; γGlu = O=C(O)[C@H](CCC(=O)[*:2])N[*:1]; αMeL = CC(C)C[C@](C)(N)C(=O)O; Dap = NC[C@H](N)C(=O)O; AEEA = NCCOCCOCC(=O)O; Aib = CC(C)(N)C(=O)O
# B1: Example 132 (peptide)
# chain: YXQGTFTSDXSRXLDKKAQXAFIEYLLEXGESSGAPPPSGS
# modifications: synthetic construct; SITE 2: note = 2-Aminoisobutyric Acid; SITE 10: note = 3-(4-Pyridyl)-L-alanine; SITE 13: note = alpha-methyl-leucine; SITE 17: note = Lysine is chemically modified through conjugation of the epsilon-amino group of the Lysine side chain with (2-[2-(2-Amino-ethoxy)-ethoxy]-acetyl)
# B2: Example 117 (peptide)
# chain: YXQGTFTSDFSXXLDKKAQXAFIEYLLEAGPSSGEPPPSGE
# modifications: synthetic construct; SITE 2: note = 2-Aminoisobutyric Acid; SITE 12: note = L-ornithine; SITE 13: note = alpha-methyl-leucine; SITE 17: note = Lysine is chemically modified through conjugation of the epsilon-amino group of the Lysine side chain with (2-[2-(2-Amino-ethoxy)-ethoxy]-acetyl)2-(gamma-Glu)
# B3: Example 115 (peptide)
# chain: B2 chain with F10X, Y25W, A29G
# modifications: synthetic construct; SITE 2: note = 2-Aminoisobutyric Acid; SITE 10: note = 3-(4-Pyridyl)-L-alanine; SITE 12: note = L-ornithine; SITE 13: note = alpha-methyl-leucine; SITE 17: note = Lysine is chemically modified through conjugation of the epsilon-amino group of the Lysine side chain with (2-[2-(2-
# B4: Example 122 (peptide)
# chain: B2 chain with Y25W, A29G, P31H, E35A
# modifications: synthetic construct; SITE 2: note = 2-Aminoisobutyric Acid; SITE 12: note = L-ornithine; SITE 13: note = alpha-methyl-leucine; SITE 17: note = Lysine is chemically modified through conjugation of the epsilon-amino group of the Lysine side chain with (2-[2-(2-Amino-ethoxy)-ethoxy]-acetyl)-(gamma-Glu)
# B5: Example 137 (peptide)
# chain: B2 chain with Y25W, A29G, E35A, P37X
# modifications: synthetic construct; SITE 2: note = 2-Aminoisobutyric Acid; SITE 12: note = L-ornithine; SITE 13: note = alpha-methyl-leucine; SITE 17: note = Lysine is chemically modified through conjugation of the epsilon-amino group of the Lysine side chain with (2-[2-(2-Amino-ethoxy)-ethoxy]-acetyl)-(gamma-Glu)
# B6: Example 121 (peptide)
# chain: B2 chain with Y25W, A29G, E35A, S39E, E41S
# modifications: synthetic construct; SITE 2: note = 2-Aminoisobutyric Acid; SITE 12: note = L-ornithine; SITE 13: note = alpha-methyl-leucine; SITE 17: note = Lysine is chemically modified through conjugation of the epsilon-amino group of the Lysine side chain with (2-[2-(2-Amino-ethoxy)-ethoxy]-acetyl)-(gamma-Glu)
# B7: Example 125 (peptide)
# chain: B1 chain with X10F, R12X, Y25W, X29G, S39E
# modifications: synthetic construct; SITE 2: note = 2-Aminoisobutyric Acid; SITE 12: note = L-ornithine; SITE 13: note = alpha-methyl-leucine; SITE 17: note = Lysine is chemically modified through conjugation of the epsilon-amino group of the Lysine side chain with (2-[2-(2-Amino-ethoxy)-ethoxy]-acetyl)-(gamma-Glu)
# B8: Example 126 (peptide)
# chain: YXQGTFTSDFSXXLDKKAQXAFIEWLLEGGHSSGAPPPEGS
# modifications: synthetic construct; SITE 2: note = 2-Aminoisobutyric Acid; SITE 12: note = L-ornithine; SITE 13: note = alpha-methyl-leucine; SITE 17: note = Lysine is chemically modified through conjugation of the epsilon-amino group of the Lysine side chain with (2-[2-(2-Amino-ethoxy)-ethoxy]-acetyl)-(gamma-Glu)
# Target: hGLP-1R (Homo sapiens, UniProt P43220)
# Sequence (P43220 24-463): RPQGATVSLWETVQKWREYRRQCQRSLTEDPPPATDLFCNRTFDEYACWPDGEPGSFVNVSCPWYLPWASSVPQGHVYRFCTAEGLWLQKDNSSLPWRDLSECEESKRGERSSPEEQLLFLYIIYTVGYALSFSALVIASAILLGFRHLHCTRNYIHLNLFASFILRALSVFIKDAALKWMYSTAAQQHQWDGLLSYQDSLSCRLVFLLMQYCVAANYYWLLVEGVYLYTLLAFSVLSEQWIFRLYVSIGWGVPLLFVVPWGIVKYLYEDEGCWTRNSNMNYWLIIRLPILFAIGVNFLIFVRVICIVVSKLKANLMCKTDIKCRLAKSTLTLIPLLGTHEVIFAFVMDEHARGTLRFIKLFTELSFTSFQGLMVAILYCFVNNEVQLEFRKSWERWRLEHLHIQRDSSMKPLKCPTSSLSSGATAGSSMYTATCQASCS
# Experiment: cell-based or functional assay
Binder,Relative cAMP EC50 [nM],"cAMP Rel EC50, nM (in the presence of 1% HSA) [nM]"
B1,5.72,823
B2,6.4,524
B3,7.6,1460
B4,3.93,468
B5,3.18,447
Y[Aib]QGTFTSDFS[Dap][αMeL]LDKK([AEEA-γGlu-C18 diacid])AQ[Aib]AFIEYLLE[Aib]GPSSGAPPPSGS-NH2 (ends and bridges not checked) [Example 134],3.36,549
B6,2.38,348
B7,4.12,1050
B8,3.97,838

# Target: T1, human GIP receptor (human) (UniProt P48546)
# T1 sequence (looked up): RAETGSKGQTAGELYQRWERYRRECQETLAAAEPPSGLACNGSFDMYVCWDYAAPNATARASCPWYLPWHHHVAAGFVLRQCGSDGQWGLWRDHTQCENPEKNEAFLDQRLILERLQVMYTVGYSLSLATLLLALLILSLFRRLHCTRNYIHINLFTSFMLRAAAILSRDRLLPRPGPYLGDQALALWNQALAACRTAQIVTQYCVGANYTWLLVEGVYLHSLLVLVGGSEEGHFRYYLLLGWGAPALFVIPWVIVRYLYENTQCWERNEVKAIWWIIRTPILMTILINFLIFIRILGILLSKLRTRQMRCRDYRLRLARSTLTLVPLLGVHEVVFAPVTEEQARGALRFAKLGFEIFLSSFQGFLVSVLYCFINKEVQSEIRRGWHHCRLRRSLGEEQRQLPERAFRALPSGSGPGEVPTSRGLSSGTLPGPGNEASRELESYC
# Experiment: cell-based or functional assay
Binder,Relative cAMP EC50 [nM],"cAMP Rel EC50, nM (in the presence of 1% HSA) [nM]"
B1,0.21,25.9
B2,0.267,29.9
B3,0.457,73.9
B4,0.189,32.6
B5,0.269,23.7
Y[Aib]QGTFTSDFS[Dap][αMeL]LDKK([AEEA-γGlu-C18 diacid])AQ[Aib]AFIEYLLE[Aib]GPSSGAPPPSGS-NH2 (ends and bridges not checked) [Example 134],0.152,38.3
B6,0.172,24.6
B7,0.503,67.8
B8,0.264,40.3

# Target: human GLP-1R (SNAP-GLP-1R expressed in HEK293 cells) (human) (UniProt P43220)
# Sequence (P43220 24-463): as the sequence (P43220 24-463) above
# Experiment: cell-based or functional assay
Binder,GLP1R Internalization EC50 [nM],Internalization % TOP [%]
B1,72.7,67.2
B2,45.5,51
B3,255,56.5
B4,57.4,43.7
B5,60.2,47.7
Y[Aib]QGTFTSDFS[Dap][αMeL]LDKK([AEEA-γGlu-C18 diacid])AQ[Aib]AFIEYLLE[Aib]GPSSGAPPPSGS-NH2 (ends and bridges not checked) [Example 134],67.9,22.3
B6,38.1,46.3
B7,86.4,42.6
B8,63.2,38.8

# Target: human glucagon receptor (human) (UniProt P47871)
# Sequence (P47871 26-477): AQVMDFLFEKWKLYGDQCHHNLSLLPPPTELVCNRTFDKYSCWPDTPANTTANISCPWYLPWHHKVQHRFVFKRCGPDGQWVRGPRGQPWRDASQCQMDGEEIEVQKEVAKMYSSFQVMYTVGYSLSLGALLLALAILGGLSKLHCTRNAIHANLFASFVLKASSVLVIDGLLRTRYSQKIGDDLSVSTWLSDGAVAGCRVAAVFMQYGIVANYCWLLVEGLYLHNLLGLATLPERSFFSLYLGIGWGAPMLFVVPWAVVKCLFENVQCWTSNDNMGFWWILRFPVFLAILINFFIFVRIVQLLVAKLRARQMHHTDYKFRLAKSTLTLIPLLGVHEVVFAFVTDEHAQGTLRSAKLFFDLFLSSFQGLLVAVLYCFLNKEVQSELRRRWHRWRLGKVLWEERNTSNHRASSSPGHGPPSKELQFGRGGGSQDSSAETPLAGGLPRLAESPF
# Experiment: cell-based or functional assay
Binder,Relative cAMP EC50 [nM],"cAMP Rel EC50, nM (in the presence of 1% HSA) [nM]"
B1,2.63,632
B2,4.75,867
B3,10.6,2210
B4,3.95,548
B5,4.43,905
Y[Aib]QGTFTSDFS[Dap][αMeL]LDKK([AEEA-γGlu-C18 diacid])AQ[Aib]AFIEYLLE[Aib]GPSSGAPPPSGS-NH2 (ends and bridges not checked) [Example 134],7.28,1200
B6,4.89,442
B7,3.97,901
B8,6.81,1120
